Measured values published in US20120164159A1 (OPSONA THERAPEUTICS, published 2012).
Each block holds one binder with its values, some of them ahead of it.

Legend:
[1] = target: T1, monkey Toll-like Receptor 2 expressed on cynomologus monkey whole blood cells (granulocytes, monocytes) (cynomologus monkey, UniProt Q95M53 19-784); assay: FACS, cynomolgus whole blood, gate Granulocytes (R3), biotinylated OPN301, detection SA-PECy7 [A]
T1 construct: whole, on cells; also called monkey TLR2
Description: Cells were then washed and incubated with streptavidin conjugated to PECy7 for a further 30 minutes.
Binding was measured using FACScalibur from Becton Dickinson. FIG. 14A relates to granulocytes. FIG. 14B relates to monocytes. FIG. 14C relates to lymphocytes. […] Accordingly, it can again be seen that OPN305 is competing for monkey Toll-like Receptor 2 binding.

[2] = target: T2, rhTLR-2 (recombinant human TLR-2) (human, UniProt O60603 21-588, limits assumed); assay: SPR, Biacore T100, antibody amine-coupled to CM5 chip, receptor as analyte, bivalent binding model, 25 C
T2 construct: Soluble recombinant protein reconstituted from dry powder, used as SPR analyte; also called glycosylated human receptor analyte
Description: (§1) Upon insertion of the CM5 chip the system was primed and then normalised with BIAnormalising solution (Biacore Preventative Maintenance Kit 2). All samples were run at 25° C. with a sample rack incubated at 25° C. unless stated. The chip was added to the system with HBS-EP used as the running buffer. The chip surface was primed with two 30 second injections of 50 mM NaOH then left until a stable baseline was obtained in all the Flow cells (Fcs).
(§2) All antibodies were immobilised using standard amine coupling chemistry. Immobilisation was carried out at a protein concentration of around 1 μg.ml-1 in 10 mM Acetate buffer pH5.5 to a target response level of 150RUs on three CM5 Series S sensor chips. Kinetic data was obtained at a flow rate of 40 μl·min-1 to minimise any potential mass transfer effects. The blank (no receptor) and a single concentration of the analytes (100 nM) was repeated at the start of the kinetic runs in order to check the stability of both the surface and two receptors over the kinetic analyses. Two repeats of the kinetic analysis were carried out and the results compared.
(§3) Association rates (Kₒₙ) and dissociation rates (Koff) were calculated using a bivalent binding model (BIAcore Evaluation Software version 3.2). The equilibrium dissociation constant (Ko) was calculated as the ratio […].

[3] = target: T3, rmTLR2/Fc (recombinant murine TLR-2) (Mus musculus, UniProt Q9QUN7 25-587, limits assumed); assay: as above
T3 construct: Recombinant Fc fusion used as SPR analyte, MW of 98 kDa printed; also called murine receptor
T3 sequence: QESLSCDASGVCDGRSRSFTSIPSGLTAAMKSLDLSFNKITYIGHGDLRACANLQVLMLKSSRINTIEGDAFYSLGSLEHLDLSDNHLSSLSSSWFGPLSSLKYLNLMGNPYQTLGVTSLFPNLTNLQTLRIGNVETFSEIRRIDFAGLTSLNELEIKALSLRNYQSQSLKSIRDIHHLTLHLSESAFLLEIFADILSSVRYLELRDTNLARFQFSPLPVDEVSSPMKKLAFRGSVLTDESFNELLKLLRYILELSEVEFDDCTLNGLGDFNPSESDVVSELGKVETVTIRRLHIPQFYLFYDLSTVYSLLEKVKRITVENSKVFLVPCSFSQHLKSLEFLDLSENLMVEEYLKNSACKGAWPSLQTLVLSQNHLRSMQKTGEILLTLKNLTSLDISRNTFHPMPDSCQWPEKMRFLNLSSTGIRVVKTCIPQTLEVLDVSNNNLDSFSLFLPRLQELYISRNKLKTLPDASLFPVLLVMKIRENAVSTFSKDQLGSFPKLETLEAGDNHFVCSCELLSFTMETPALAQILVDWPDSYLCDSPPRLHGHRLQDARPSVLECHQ
Description: as §1, §2, §3

[4] = target: T1, monkey Toll-like Receptor 2 expressed …; assay: FACS, cynomolgus whole blood, gate Granulocytes (R3), OPN305 + FITC mouse anti-hIgG4 [A]

T2 sequence (O60603 21-588 limits assumed): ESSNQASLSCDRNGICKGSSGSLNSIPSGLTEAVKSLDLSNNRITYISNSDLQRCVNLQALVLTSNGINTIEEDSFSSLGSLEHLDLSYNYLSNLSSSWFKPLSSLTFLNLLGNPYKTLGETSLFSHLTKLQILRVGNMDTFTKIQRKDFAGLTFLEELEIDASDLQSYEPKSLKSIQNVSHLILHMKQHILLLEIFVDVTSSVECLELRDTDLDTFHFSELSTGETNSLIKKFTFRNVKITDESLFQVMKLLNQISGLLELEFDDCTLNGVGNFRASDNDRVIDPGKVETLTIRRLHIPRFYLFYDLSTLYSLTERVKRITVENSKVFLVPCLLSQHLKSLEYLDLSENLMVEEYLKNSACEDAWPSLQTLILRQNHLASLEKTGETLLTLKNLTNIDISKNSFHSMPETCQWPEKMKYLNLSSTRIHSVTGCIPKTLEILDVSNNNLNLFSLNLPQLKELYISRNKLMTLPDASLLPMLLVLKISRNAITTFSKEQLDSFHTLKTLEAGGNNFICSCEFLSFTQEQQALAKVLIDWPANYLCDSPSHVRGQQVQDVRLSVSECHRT
T1 sequence (Q95M53 19-784): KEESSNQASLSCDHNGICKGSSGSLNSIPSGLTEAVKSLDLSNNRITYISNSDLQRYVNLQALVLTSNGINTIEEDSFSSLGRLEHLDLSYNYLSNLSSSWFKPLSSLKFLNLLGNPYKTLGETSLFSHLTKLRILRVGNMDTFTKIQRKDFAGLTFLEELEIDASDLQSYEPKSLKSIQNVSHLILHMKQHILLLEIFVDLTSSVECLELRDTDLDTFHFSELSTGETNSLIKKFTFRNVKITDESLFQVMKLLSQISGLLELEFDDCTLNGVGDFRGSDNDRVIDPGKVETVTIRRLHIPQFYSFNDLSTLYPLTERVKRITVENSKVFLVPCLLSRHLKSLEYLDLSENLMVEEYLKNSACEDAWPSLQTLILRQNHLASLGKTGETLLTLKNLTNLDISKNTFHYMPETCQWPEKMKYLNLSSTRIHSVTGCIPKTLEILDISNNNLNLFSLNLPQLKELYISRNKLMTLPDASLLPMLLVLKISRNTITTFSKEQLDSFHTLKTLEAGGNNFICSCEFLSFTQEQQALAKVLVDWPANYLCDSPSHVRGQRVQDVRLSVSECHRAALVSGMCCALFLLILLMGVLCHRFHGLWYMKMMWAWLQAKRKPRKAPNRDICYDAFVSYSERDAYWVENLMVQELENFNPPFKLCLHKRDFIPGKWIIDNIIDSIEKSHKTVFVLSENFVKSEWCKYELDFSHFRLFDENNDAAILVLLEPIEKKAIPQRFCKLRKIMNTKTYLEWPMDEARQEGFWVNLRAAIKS

binding result [1]: binds
Kd [2]: 48.2 nM
koff [2]: 0.00023 s⁻¹
kon [2]: 4820 M⁻¹ s⁻¹
Kd [3]: 15.6 nM
koff [3]: 0.000141 s⁻¹
kon [3]: 9700 M⁻¹ s⁻¹
B1: T2.5 murine anti-Toll-like Receptor 2 monoclonal antibody (clone T2.5, HyCult Biotechnology, catalogue number 1054) (antibody, mouse IgG1, V domains shown)
VH: QVQLQQSGPELVNPGASVKLSCKASGFTFTTYGINWVKQGPGQGLEWIGWIYPRDGSTNFNENFKDKAALTVDTSSSTAYMELHSLTSEDSAVYFCARLTGGTFLDYWGQGTTLTVSS
VL: DIVLTQSPASLAVSLGQRATISCRASESVEYYGTSLMQWYQQKPGQPPKLLIFGASNVESGVPVRFSGSGSGTDFSLNIHPVEEDDIVMYFCQQSRKLPWTFGGGTKLEIK
notes: Murine IgG1, bought; also called OPN301

binding result [4]: binds
Kd [2]: 28.9 nM
koff [2]: 8.95e-05 s⁻¹
kon [2]: 3100 M⁻¹ s⁻¹
Kd [3]: 11.9 nM
koff [3]: 8.2e-05 s⁻¹
kon [3]: 6770 M⁻¹ s⁻¹
B2: OPN-305 fully humanised anti-Toll-like Receptor 2 monoclonal antibody (antibody, human IgG4 S228P, kappa, V domains shown)
VH: QVQLVQSGSELKKPGASVKLSCKASGFTFTTYGINWVRQAPGQGLEWIGWIYPRDGSTNFNENFKDRATITVDTSASTAYMELSSLRSEDTAVYFCARLTGGTFLDYWGQGTTVTVSS
VL: DIVLTQSPATLSLSPGERATLSCRASESVEYYGTSLMQWYQQKPGQPPKLLIFGASNVESGVPDRFSGSGSGTDFTLKISRVEAEDVGMYFCQQSRKLPWTFGGGTKVEIKR
notes: made in NS0 cells; also called variant 21
